The results in this text go back to patent US20190307836A1 (Bicycle, published 2019).

Starred links: 1 amine or outer side, 2 acyl side, 3 side chain; linkers in the order of their positions; H or OH if unused. Positions of bridges follow the written chain, without caps; N, C: chain ends. Non-standard residues stand in square brackets, D forms with d. Chains are numbered I, II in the order given. No end group written: not given here. *: point of attachment. TATA = O=C(CC[*:1])N1CN(C(=O)CC[*:2])CN(C(=O)CC[*:3])C1; Dap(PYA) = diaminopropionic acid bearing 4-pentynoyl; 1Nal = N[C@@H](Cc1cccc2ccccc12)C(=O)O; Hyp = O=C(O)[C@@H]1C[C@@H](O)CN1; hArg = N=C(N)NCCCC[C@H](N)C(=O)O; tBuAla = CC(C)(C)C[C@H](N)C(=O)O; Nle = CCCC[C@H](N)C(=O)O; Pent4ynoyl = C#CCCC(=O)*; Dap = NC[C@H](N)C(=O)O; βAla = NCCC(=O)O; Sar = CNCC(=O)O

B1: heterotandem bicyclic peptide complex BCY10576 (peptide)
peptide 1: A[hArg]DC[Hyp]LVNPLCLHP[dD]W[hArg]C
peptide 2: Ac-C[tBuAla]PE[dA]PYCFADPY[Nle]C-{Dap(PYA)}
modifications: linker I:4-I:11-I:18, II:1-II:8-II:15 via TATA; not fully specified (C-terminus); also: chains joined by PEG5 linker on chain 1 N-terminus, triazole to Dap(PYA)
B2: heterotandem bicyclic peptide complex BCY10575 (peptide)
peptide 1: A[hArg]DC[Hyp]LVNPLCLHP[dD]W[hArg]C
peptide 2: Ac-C[tBuAla]PE[dK](Pent4ynoyl)PYCFADPY[Nle]CA
modifications: linker I:4-I:11-I:18, II:1-II:8-II:15 via TATA; not fully specified (C-terminus); also: chains joined by PEG5 linker on chain 1 N-terminus, triazole to D-Lys(PYA)
B3: heterotandem bicyclic peptide complex BCY10574 (peptide)
peptide 1: A[hArg]DC[Hyp]LVNPLCLHP[dD]W[hArg]C
peptide 2: Ac-C[tBuAla]PK(Pent4ynoyl)[dA]PYCFADPY[Nle]CA
modifications: linker I:4-I:11-I:18, II:1-II:8-II:15 via TATA; not fully specified (C-terminus); also: chains joined by PEG5 linker on chain 1 N-terminus, triazole to K(PYA)
B4: heterotandem bicyclic peptide complex BCY10570 (peptide)
peptide 1: {Pent4ynoyl-βAla}-[Sar][Sar][Sar][Sar][Sar][Sar][Sar][Sar][Sar][Sar]A[hArg]DC[Hyp]LVNPLCLHP[dD]W[hArg]C
peptide 2: Ac-C[tBuAla]PE[dK]PYCFADPY[Nle]CA
modifications: linker I:14-I:21-I:28, II:1-II:8-II:15 via TATA; not fully specified (C-terminus); numbers in words are those of the source; also: chains joined by PEG12 linker, triazole from PYA, linker on chain 2 D-Lys side chain
B5: heterotandem bicyclic peptide complex BCY10568 (peptide)
peptide 1: {Pent4ynoyl-βAla}-[Sar][Sar][Sar][Sar][Sar][Sar][Sar][Sar][Sar][Sar]A[hArg]DC[Hyp]LVNPLCLHP[dD]W[hArg]C
peptide 2: Ac-C[tBuAla]PK[dA]PYCFADPY[Nle]CA
modifications: linker I:14-I:21-I:28, II:1-II:8-II:15 via TATA; not fully specified (C-terminus); numbers in words are those of the source; also: chains joined by PEG12 linker, triazole from PYA, linker on chain 2 Lys4 side chain
B6: heterotandem bicyclic peptide complex BCY10577 (peptide)
peptide 1: {Pent4ynoyl-βAla}-[Sar][Sar][Sar][Sar][Sar][Sar][Sar][Sar][Sar][Sar]A[hArg]DC[Hyp]LVNPLCLHP[dD]W[hArg]C
peptide 2: Ac-C[tBuAla]PE[dA]PYCFADPY[Nle]C[Dap]
modifications: linker I:14-I:21-I:28, II:1-II:8-II:15 via TATA; not fully specified (C-terminus); numbers in words are those of the source; also: chains joined by CH2 linker, triazole from PYA, linker on Dap side chain
B7: heterotandem bicyclic peptide complex BCY11376 (peptide)
peptide 1: SDKCSAGWLTMCQXLHLCPSH
peptide 2: CXPKAPYCFADPYXCA
modifications: not fully specified; BCY8919: N-terminal acetyl; tBuAla1, Lys3 bearing the linker, D-Ala4, Nle12; Ci, Cii, Ciii on TATA scaffold; BCY10861: N-terminal acetyl; K(PYA)9 bearing the linker; Ci, Cii, Ciii on TATA scaffold
B8: heterotandem bicyclic peptide complex BCY11377 (peptide)
peptide 1: SDKCSAGWLTMCQXLHLCPSH
peptide 2: CXPEKPYCFADPYXCA
modifications: not fully specified; BCY8920: N-terminal acetyl; tBuAla1, D-Lys4 bearing the linker, Nle12; Ci, Cii, Ciii on TATA scaffold; BCY10861: N-terminal acetyl; K(PYA)9 bearing the linker; Ci, Cii, Ciii on TATA scaffold
B9: heterotandem bicyclic peptide complex BCY10580 (peptide)
peptide 1: {Pent4ynoyl-βAla}-[Sar][Sar][Sar][Sar][Sar][Sar][Sar][Sar][Sar][Sar]SDKCSAGWLTMCQKLHLC
peptide 2: Ac-C[tBuAla]PE[dA]PYCFADPY[Nle]C[Dap]
modifications: linker I:14-I:22-I:28, II:1-II:8-II:15 via TATA; not fully specified (C-terminus); numbers in words are those of the source; also: linker to a chain's N/C-terminus via PEG12
B10: heterotandem bicyclic peptide complex BCY10567 (peptide)
peptide 1: {Pent4ynoyl-βAla}-[Sar][Sar][Sar][Sar][Sar][Sar][Sar][Sar][Sar][Sar]CP[1Nal][dD]CM[hArg]DWSTP[Hyp]WC
peptide 2: Ac-C[tBuAla]PK[dA]PYCFADPY[Nle]CA
modifications: linker I:11-I:15-I:25, II:1-II:8-II:15 via TATA; not fully specified (C-terminus, bridges); numbers in words are those of the source; also: chains joined by PEG12 linker, triazole from PYA, linker on chain 2 Lys4 side chain
B11: heterotandem bicyclic peptide complex BCY11380 (peptide)
peptide 1: SDKCSAGWLTMCQXLHLCPSH
peptide 2: CXPEKPYCFADPYXCA
modifications: not fully specified; BCY8920: N-terminal acetyl; tBuAla1, D-Lys4 bearing the linker, Nle12; Ci, Cii, Ciii on TATA scaffold; BCY10861: N-terminal acetyl; K(PYA)9 bearing the linker; Ci, Cii, Ciii on TATA scaffold
B12: heterotandem bicyclic peptide complex BCY11018 (peptide)
peptide 1: SDKCSAGWLTMCQXLHLCPSH
peptide 2: CXPEKPYCFADPYXCA
modifications: not fully specified; BCY8920: N-terminal acetyl; tBuAla1, D-Lys4 bearing the linker, Nle12; Ci, Cii, Ciii on TATA scaffold; BCY10861: N-terminal acetyl; K(PYA)9 bearing the linker; Ci, Cii, Ciii on TATA scaffold
B13: heterotandem bicyclic peptide complex BCY11379 (peptide)
peptide 1: SDKCSAGWLTMCQXLHLCPSH
peptide 2: CXPKAPYCFADPYXCA
modifications: not fully specified; BCY8919: N-terminal acetyl; tBuAla1, Lys3 bearing the linker, D-Ala4, Nle12; Ci, Cii, Ciii on TATA scaffold; BCY10861: N-terminal acetyl; K(PYA)9 bearing the linker; Ci, Cii, Ciii on TATA scaffold
B14: heterotandem bicyclic peptide complex BCY11017 (peptide)
peptide 1: SDKCSAGWLTMCQXLHLCPSH
peptide 2: CXPKAPYCFADPYXCA
modifications: not fully specified; BCY8919: N-terminal acetyl; tBuAla1, Lys3 bearing the linker, D-Ala4, Nle12; Ci, Cii, Ciii on TATA scaffold; BCY10861: N-terminal acetyl; K(PYA)9 bearing the linker; Ci, Cii, Ciii on TATA scaffold
B15: heterotandem bicyclic peptide complex BCY10578 (peptide)
peptide 1: {Pent4ynoyl-βAla}-[Sar][Sar][Sar][Sar][Sar][Sar][Sar][Sar][Sar][Sar]CP[1Nal][dD]CM[hArg]DWSTP[Hyp]WC
peptide 2: Ac-C[tBuAla]PE[dA]PYCFADPY[Nle]C[Dap]
modifications: linker I:11-I:15-I:25, II:1-II:8-II:15 via TATA; not fully specified (C-terminus); numbers in words are those of the source; also: linker to a chain's N/C-terminus via CH2
B16: heterotandem bicyclic peptide complex BCY10569 (peptide)
peptide 1: {Pent4ynoyl-βAla}-[Sar][Sar][Sar][Sar][Sar][Sar][Sar][Sar][Sar][Sar]CP[1Nal][dD]CM[hArg]DWSTP[Hyp]WC
peptide 2: Ac-C[tBuAla]PE[dK]PYCFADPY[Nle]CA
modifications: linker I:11-I:15-I:25, II:1-II:8-II:15 via TATA; not fully specified (C-terminus, bridges); numbers in words are those of the source; also: chains joined by PEG12 linker, triazole from PYA, linker on chain 2 D-Lys side chain
B17: heterotandem bicyclic peptide complex BCY8939 (peptide)
peptide 1: CXDWCHWTFSHGHPC
peptide 2: ACIEEGQYCFADPYXC
modifications: BCY7732: N-terminal acetyl; Nle12; C-terminal Dap (diaminopropionic acid) bearing the linker; Ci, Cii, Ciii on TATA scaffold; BCY8938: N-terminal [PYA]-[B-Ala]-[Sar10]- (linker on PYA); HArg1; Ci, Cii, Ciii on TATA scaffold
B18: heterotandem bicyclic peptide complex BCY10582 (peptide)
peptide 1: SDKCSAGWLTMCQXLHLC
peptide 2: CXPEAPYCFADPYXC
modifications: not fully specified; BCY9172: N-terminal acetyl; tBuAla1, D-Ala4, Nle12; C-terminal Dap (diaminopropionic acid) bearing the linker; Ci, Cii, Ciii on TATA scaffold; BCY10045: free N-terminus (NH2-); K(PYA)9 bearing the linker; Ci, Cii, Ciii on TATA scaffold

CD137 expressed on cells (CHO cells expressing CD137; Jurkat cells of the Promega CD137 luciferase reporter assay), sequence (Q07011 24-255 limits assumed): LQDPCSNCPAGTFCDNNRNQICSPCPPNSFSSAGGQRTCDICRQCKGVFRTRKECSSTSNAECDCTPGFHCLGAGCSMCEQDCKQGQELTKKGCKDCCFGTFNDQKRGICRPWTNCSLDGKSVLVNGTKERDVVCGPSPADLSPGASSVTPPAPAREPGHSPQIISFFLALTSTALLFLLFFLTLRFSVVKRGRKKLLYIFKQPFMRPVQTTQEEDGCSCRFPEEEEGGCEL

The first experiment addresses CD137 expressed on cells (CHO cells expressing CD137; Jurkat cells of the Promega CD137 luciferase reporter assay) (UniProt Q07011). Briefly: cell-based or functional assay.
With B1, the EC50 (nM), CD137 reporter assay, co-culture with PC3 (EphA2) was determined as 0.51 nM and the Fold Induction over Background, CD137 reporter assay, co-culture with PC3 (EphA2) amounted to 38 fold.

For B2, the EC50 (nM), CD137 reporter assay, co-culture with PC3 (EphA2) is 0.62 nM and the Fold Induction over Background, CD137 reporter assay, co-culture with PC3 (EphA2) is 38 fold.

B3 came in with an EC50 (nM), CD137 reporter assay, co-culture with PC3 (EphA2) of 1 nM and a Fold Induction over Background, CD137 reporter assay, co-culture with PC3 (EphA2) of 32 fold.

In turn, B4 had an EC50 (nM), CD137 reporter assay, co-culture with PC3 (EphA2) of 0.41 nM and a Fold Induction over Background, CD137 reporter assay, co-culture with PC3 (EphA2) of 38 fold.

Consider B5, for which the EC50 (nM), CD137 reporter assay, co-culture with PC3 (EphA2) amounted to 0.25 nM and the Fold Induction over Background, CD137 reporter assay, co-culture with PC3 (EphA2) was 32 fold.

The molecule B6 yielded an EC50 (nM), CD137 reporter assay, co-culture with PC3 (EphA2) of 0.28 nM and a Fold Induction over Background, CD137 reporter assay, co-culture with PC3 (EphA2) of 37 fold.

The target of the next experiment is CD137 expressed on cells (CHO cells expressing CD137); Jurkat cells of the Promega CD137 luciferase reporter … (UniProt Q07011 24-255, limits assumed). The experiment in a line: cell-based or functional assay.
CD137 expressed on cells (CHO cells expressing CD137); Jurkat cells of the Promega CD137 luciferase reporter …, sequence (Q07011 24-255 limits assumed): as above
Take B7: the “EC50 (nM), CD137 reporter assay, co-culture with RKO (PD-L1)” value (“EC50 (nM), CD137 reporter assay … (PD-L1)” for short) came out at 127 nM.

B8: the “EC50 (nM), CD137 reporter assay … (PD-L1)” value is 40 nM.

Consider B9, for which the “EC50 (nM), CD137 reporter assay … (PD-L1)” value came out at 28 nM and the “Fold Induction over Background, CD137 reporter assay, co-culture with RKO (PD-L1)” value is 3 fold.

Consider B10, for which the “EC50 (nM), CD137 reporter assay, co-culture with H1376 (Nectin4)” value (“EC50 (nM), CD137 reporter assay … (Nectin4)” below) came out at 1.7 nM and the “Fold Induction over Background, CD137 reporter assay, co-culture with H1376 (Nectin4)” value stood at 45 fold.

Regarding B11, the “EC50 (nM), CD137 reporter assay … (PD-L1)” value was found to be 34 nM.

As for B12, the “EC50 (nM), CD137 reporter assay … (PD-L1)” value worked out at 27 nM.

Regarding B13, the “EC50 (nM), CD137 reporter assay … (PD-L1)” value turned out to be 68 nM.

Turning to B14, the “EC50 (nM), CD137 reporter assay … (PD-L1)” value is 66 nM.

As for B15, the “EC50 (nM), CD137 reporter assay … (Nectin4)” value turned out to be 0.42 nM.

Regarding B16, the “EC50 (nM), CD137 reporter assay … (Nectin4)” value came out at 1.2 nM and the “Fold Induction over Background, CD137 reporter assay, co-culture with H1376 (Nectin4)” value turned out to be 52 fold.

B17: the “Fold Induction over Background, CD137 reporter assay, co-culture with MC38 (mouse PD-L1)” value is below 2 fold.

On to B18, for which the “EC50 (nM), CD137 reporter assay … (PD-L1)” value is 28 nM and the “Fold Induction over Background, CD137 reporter assay, co-culture with RKO (PD-L1)” value is 4 fold.
